From the supplement of paper PMC10567573

B1: ETS1 (parent)
chain: FSEPSFITESYQTLHPISSEELLS
B2: DYRK1B (parent)
chain: KKVLNHGYDDDNHDYIVRSGERWL

Variants of: B1
Assay: protein stability index of a GFP-peptide fusion (GPS, HEK-293T) (PSI 1-6); higher = more stable
Conditions: c terminus: a fixed tail appended
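Further: lentivirally expressed fusions sorted by FACS into six bins by GFP to DsRed ratio, PSI derived from sequencing read proportions per bin multiplied by bin number.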

Variant	protein stability index
S18V	2.13
T8R	2.12
T8L	1.92
T8P	3.5
T8Q	2.59
T8C	2.22
T8I	1.98
T8G	2.05
T8V	1.36
S5L	1.99
S5A	2.07
S5Y	1.8
S5H	1.58
S5V	1.91
S5I	1.48
S2K	3.34
S2A	2.42
S2E	3.98
S2P	1.95
S2W	2.1
E9P	1.75
E9C	2.25
E9Y	1.77
E9G	1.88
E9M	2.32
F1D	4.47

Variant	protein stability index
F1I	4.03
F1A	4.17
F1G	4.4
F1R	4.2
F1C	3.52
L14V	2.09
L14Q	2.48
L14I	1.94
L14A	2.08
L14C	1.93
I7K	3.73
I7C	2.03
I7H	2.42
I7Y	2.82
I7R	3.17
I7D	4.01
I7T	3.29
E3T	2.35
E3Q	1.7
E3P	2.9
E3D	1.74
E3H	2.17
Y11F	1.73
Y11A	2.21
Y11R	1.82
Y11P	3.21

Variant	protein stability index
Y11N	2.56
Y11H	2.25
H15P	2.27
H15A	2.27
H15D	2.48
H15N	1.71
H15S	1.91
H15T	2.38
L22M	2
L22Y	2.04
L22S	2
L22G	2.03
Q12P	1.91
Q12R	1.92
Q12D	2.52
Q12S	1.88
Q12C	2.24
Q12W	2.42
T13F	1.53
T13P	2.11
T13C	1.67
T13Y	1.93
T13N	1.68
T13H	1.62
T13S	2.35
T13L	1.99

Variant	protein stability index
I17G	1.81
I17A	2.33
I17E	2.39
I17T	2.78
I17L	2.45
I17Q	2.31
S10L	2.52
S10A	1.74
S10T	2.15
S10I	1.86
S10C	1.53
S10G	1.72
S10D	2.82
L23N	2.31
L23S	2.07
L23Y	1.78
L23A	2.57
L23M	2.03
E21S	1.52
E21D	1.74
E21M	2.1
E21F	1.99
E21C	1.79
E21H	2.24
F6T	4.34
F6W	2.27

Variant	protein stability index
F6A	4
F6Q	4.76
F6S	4.2
F6C	3.36
E20S	2.11
E20L	1.95
E20H	2.14
E20Y	1.72
E20G	1.62
S19T	2.21
P4H	2.54
P4I	1.54
P4Q	2.81
P4G	2.37
P4A	2.21
P4M	2.19
S24F	1.65
S24E	2.54
S24M	1.97
S24L	1.69
P16H	1.81
P16C	2.07
P16T	1.9
P16L	3.29
P16I	1.6

Variants of: B2
Assay: as above
Conditions: c terminus: a fixed tail appended

Variant	protein stability index
V3K	3.08
V3E	3.48
V3I	2.73
V3Y	2.73
V3M	3.04
V3Q	3.08
V3N	3.15
V3H	3.12
V3W	2.05
V3T	3
V3P	2.94
V3S	3.47
V3R	2.83
V3F	2.61
V3C	2.41
V3L	2.88
V3A	3.45
V3G	3.33
V3D	3.74
G7S	3.21
G7D	3.4
G7F	2.4
G7C	2.27
G7M	3.07
G7T	3.53
G7Y	2.93

Variant	protein stability index
G7R	3.31
G7H	2.84
G7Q	3.12
G7N	3.23
G7K	3.3
G7W	2.74
G7L	2.24
G7P	3.15
G7E	3.64
G7I	2.22
G7V	2.77
G7A	3.47
K1N	2.95
K1H	3.39
K1P	3.43
K1S	3.23
K1W	2.07
K1L	2.48
K1F	2.41
K1C	2.38
K1G	3.5
K1A	3.11
K1T	2.92
K1I	2.28
K1Y	2.38
K1E	3.24

Variant	protein stability index
K1R	2.43
K1V	2.29
K1M	3.09
K1Q	2.74
K1D	3.62
N5R	2.92
N5T	2.57
N5I	2.82
N5W	2.72
N5V	3.22
N5D	3.41
N5E	3.46
N5A	2.88
N5G	3.42
N5C	2.84
N5F	2.7
N5Y	2.33
N5L	3.01
N5K	2.97
N5M	2.8
N5Q	3.01
N5P	3.39
N5S	2.67
N5H	2.89
D10E	2.95
D10S	2.72

Variant	protein stability index
D10T	3
D10H	2.75
D10P	2.81
D10F	1.83
D10L	2.43
D10M	2.96
D10A	3.02
D10Q	2.99
D10V	2.44
D10Y	3.06
D10I	2.3
D10C	2.52
D10G	3.46
D10K	3.16
D10R	2.82
D10N	2.48
D10W	2.04
Y8L	3.36
Y8V	3.58
Y8F	3.46
Y8R	4.28
Y8P	3.24
Y8N	4.15
Y8D	3.87
Y8A	3.82
Y8T	3.74

Variant	protein stability index
Y8H	4.27
Y8M	3.48
Y8I	3.27
Y8Q	3.77
Y8K	3.58
Y8S	3.66
Y8E	3.71
Y8W	2.74
Y8G	3.56
Y8C	3.24
L4E	3.56
L4A	3.68
L4S	3.27
L4N	3.76
L4W	3.1
L4I	3.33
L4V	2.58
L4R	3.38
L4C	3.33
L4T	3.86
L4P	3.36
L4Y	2.99
L4G	3.87
L4M	2.88
L4D	4.28
L4K	3.68

Variant	protein stability index
L4H	3.27
L4Q	4.12
L4F	2.59
D11N	2.89
D11P	2.58
D11H	3.08
D11S	3.03
D11L	2.25
D11F	2.15
D11A	3.09
D11G	2.85
D11Q	2.83
D11R	2.37
D11I	2.5
D11E	3.18
D11M	2.59
D11K	2.92
D11C	2.55
H6G	3.26
H6Y	3.12
H6E	3.44
H6T	3.12
H6V	2.84
H6L	2.51
H6S	3.22
H6K	3.52

Variant	protein stability index
H6F	2.4
H6R	2.91
H6M	2.34
H6N	3.38
H6Q	3.32
H6I	3.01
H6A	2.81
H6W	2.01
H6P	3.27
H6C	2.38
H6D	3.48
K2R	3.13
K2L	2.12
K2V	2.86
K2C	1.9
K2I	2.23
K2P	3.46
K2Q	3.32
K2W	2.12
K2M	2.86
K2D	4.31
K2E	3.7
K2N	3.79
K2A	3.33
K2F	2.52
K2T	3.53

Variant	protein stability index
K2H	3.19
K2S	2.97
K2G	3.6
K2Y	2.52
D9M	2.83
D9Q	2.94
D9R	2.74
D9N	2.63
D9C	2.96
D9Y	2.17
D9V	2.67
D9I	2.52
D9K	2.87
D9L	2.39
D9F	2.61
D9S	2.34
D9H	2.74
D9G	2.51
D9A	2.89
D9T	2.75
D9W	1.53
D9E	3.96
D9P	3.12
